In the nanobody polyreactivity screen of Harvey et al. (2022):

Assay: yeast display, Sf9 membrane polyspecificity reagent, FACS + sequencing; frameworks hold sequencing errors
Outline: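 Nanobodies came from a synthetic yeast display library in Saccharomyces cerevisiae BJ5465, induced with galactose for 36–48 hours and stained for 1 hour at 4 °C with 10% biotinylated, detergent-solubilized Sf9 membrane reagent. Cells were enriched on streptavidin microbeads and then FACS-sorted, with low and high (top ~1%) gates set on anti-HA fluorescence for expression and streptavidin fluorescence for reagent binding. Each polyreactivity label reflects the gate a clone came from. Genes were amplified by colony PCR, sequenced by MiSeq 2 × 250 and filtered by CDR length.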

| Sequence | polyreactivity (PSR sort gate) |
| --- | --- |
| QVQLVESGGGLVQAGGSLRLSCASSGRIFYYNTMGWYRQAPGKERELVAAINWSGTSTYYADSVKGRFTISRDNAKNTVYLQMNSLKPEDTAVYYCAAYYRYRVTYDYYYWGQGTQVTVSS | high polyreactivity |
| QVQLVESGGGLVQAGGSLRLSCASSGRNFGYDGMGWYRQAPGKERELVAAITYRGGSTYYADSVKGRFTISRDNAKNTVYLQMNSLKPEDTAVYYCAADGYSHYRYLYDYWGQGTQVTVSS | low polyreactivity |
| QVQLVESGGGLVQAGGSLRLSCASSGRNFRGYAMGWYRQAPGKEREFVAAITKNGGSTYYADSVKGRFTISRDNAKNTVYLQMNSLKPEDTAVYYCAVRAWDPYTGKSDYWGQGTQVTVSS | low polyreactivity |
| QVQLVESGGGLVQAGGSLRLSCASSGRTFGINAMGWYRQAPGKERELVAVISFGDGGTYYADSVKGRFTISRDNAKNTVYLQMNSLNPEDSAVYYCATDYQSTSVWGGHFVINPYDYWGQGTQVTVSS | low polyreactivity |
| QVQLVESGGGLVQAGGSLRLSCASSGRTFNPYAMGWYRQAPGKERELVAAISRSGGGTYYADSVKGRCTISRDNAKNTVYLQMNSLKPEDTAVYYCNADRATCWEQWWYDNWGQGTQVTVSS | low polyreactivity |
| QVQLVESGGGLVQAGGSLRLSCASSGRTFSYYALGWSRQAPGKERELVAAITSGGSTYYADSVKGRFTISRDNAKNTVYLQMNSLKPEDTAVYYCAADPGDDYWGQGTQVTVSS | low polyreactivity |
| QVQLVESGGGLVQAGGSLRLSCASSGRTFSYYAMGWYRQAPGKERELVAAISTSGGSTYYADSVKGRFTISRDNAKNTVYLQMNSLKPEDTAVYYWAASPYLRFLYGGFGYWGQGTEVTVSS | high polyreactivity |
| QVQLVESGGGLVQAGGSLRLSCASSGRTSLNYAMGWYRQAPGKDRELVAAITSGGGGTYYADSVKGRFTISRDNAKNTVYLQMYRLKPEVTALYYCGAKFPARRKLSKVGFDYWGQGTQVSVSS | high polyreactivity |
| QVQLVESGGGLVQAGGSLRLSCASSGSIFEANAMGWYRQAPGIESELVAAISTTGGNTYYADSVKGRFTISRDNAKNTVYLQMNSLKPEDTAVYYCAADPSQPRIDSSNYDYWGQGTQVTVSS | low polyreactivity |
| QVQLVESGGGLVQAGGSLRLSCASSGSIFEGYVMGWYRQAPGKERELVAAITTGGGSTYYADSVKGRFTISRDNAKNTVYLQMTSLKPEDTAVYYCAKDYWFGYEYWGQGTQVTVSS | low polyreactivity |
| QVQLVESGGGLVQAGGSLRLSCASSGSIFFGYGMGWYRQAPGKERELVATITTSGGTYYADSVKGRFRISRDNAKNTDYLQMNSLKPEDTAVYYCAATAAALDGNTIMYYWGQGTQVTVSS | low polyreactivity |
| QVQLVESGGGLVQAGGSLRLSCASSGSIFSSNTMGWYRQAPGKERELVAAITVSGGRTYYADSVKGRFTISRDNAKNTVYLQMNSLKPEDTAVYFCAARYANTYRTETSYPRYYSWGQGTHVTVSS | high polyreactivity |
| QVQLVESGGGLVQAGGSLRLSCASSGSIFWQNTMGWYRQAPGKERELVATITSAGSTYYADSVKGRFTISRDNAKNTVYLQMNSLKPEDTAVYYCAKGHQPGHVFHPEYGYDYWGQGTQVTVSS | low polyreactivity |
| QVQLVESGGGLVQAGGSLRLSCASSGSIFYGYAMGWYRQAPGKERELVAAINNSGVSTYYADSVQGRFTISRDNAKNTVYLQMNSLKPEDTAVYYCNKAGAYPYHYDYWGQGTQGTVSS | low polyreactivity |
| QVQLVESGGGLVQAGGSLRLSCASSGSIFYNNAMGWYRQAPGKERELVAAIRSTGTRTYYSDSVKGRFTISRDTAKNTVYLQMNSLKPEDTAVYYCAVGDYGLWSYDYWGQGTQVTVSA | low polyreactivity |
| QVQLVESGGGLVQAGGSLRLSCASSGSILVHYAMGRYRQAPGKERELFAAISRGGSTNYADSVKGRFTISRDNAKNTVYLQMNSLKPEDTAVYFCAARHGQSWQWLEYDYWGHGTQVTVSS | low polyreactivity |
| QVQLVESGGGLVQAGGSLRLSCASSGSNTFINAMGWYRQAPGKERELVAAISGSGGSTYYADSVKGRFTISRDNAKNTVYLQMNFLKPEDTAVYYAARTGQYKTYGEYDYWGQGTQVTVSS | low polyreactivity |
| QVQLVESGGGLVQAGGSLRLSCASSGSTFDINAMGWYTQAPGKARELVAAITCGGGTNYADSVKGRFTISRDNAKNTVYLEMNSLKPEDTAVYYCAAVYYSTDYYFWYDYWGQGTQVTVSS | low polyreactivity |
| QVQLVESGGGLVQAGGSLRLSCASSGSTFDYYVMGWYRQEPGIVRELVASISSGGSTYYADSVKGRFTISRDNAKNTVYLQMNSLKPEDTAVYYCAARYYGRVGGYSIGYNYWGQGTQVTVSS | high polyreactivity |
| QVQLVESGGGLVQAGGSLRLSCASSGSTFFTNAMVWYRQAPGKERELVATITWSGGTTYADSVKGRFTISRDNAKNTVYLQMNSLKPEDTAVYYCADESSSYWGDQGGALWLYDYWGQGTQVTVSS | low polyreactivity |
| QVQLVESGGGLVQAGGSLRLSCASSGSTFNPYAMGWYRQAPGKERELVAAISRGGRTKYADSVKGRFSISRDNAKNTVYCHMNSLKPEDTAVYYCAARQRSRSRYDYWGQVTQVTVSS | high polyreactivity |
| QVQLVESGGGLVQAGGSLRLSCASSGSTFSYYTMGWNRQAPGKERELVAAITRSGGRTYYADSVKGRFTISRDNAKNTVYLQMNSLKPEDTAVYNCAAYRANSGEFDYWGQGTQVTVTS | high polyreactivity |

| Sequence | polyreactivity (PSR sort gate) |
| --- | --- |
| QVQLVESGGGLVQAGGSLRLSCASSGSTFVSYAMGWYRQAPGKERELVAGISWSGTRTYYADSVKGRFTISRDNAKNTVYLQMNSLKPEDTAVYYCAALDSSYNWYGYWGQGTQVTVSS | high polyreactivity |
| QVQLVESGGGLVQAGGSLRLSCASSGSTFVSYVMGWYRQAPGKERELVARITISSGSTRYADSVKGRFTISRDNAKNTVYLQMNSLKPEDTAVSYCAVDAVDAFVFLSWDYDYWGQGTQVTVSS | low polyreactivity |
| QVQLVESGGGLVQAGGSLRLSCASSGSTIGRNAMGWYRQAPGKERELVASISSGGSTYYADSVKGRFTISRDNAKNTVYLQMESLKPEDTAVYYCARRAYQNWYNYWGQGTQVTVAS | high polyreactivity |
| QVQLVESGGGLVQAGGSLRLSCASSGSTIVHYAMGWYRQAPGKERELVAGITDTDNHELRRLCEGRFTISRDNAKNTVYLQMNSLKPEDTAVYFCNADDTYYQLGGITGYDYWGQCTQVTVSS | low polyreactivity |
| QVQLVESGGGLVQAGGSLRLSCASSGSTLFPYAMGWYRQAPGKERELVAAISSRGGRTYYADSVKGRFTISRDNAKNTVYLQMNSLKPEDTAVYYCAAGDDYWGQGTQVTVSS | high polyreactivity |
| QVQLVESGGGLVQAGGSLRLSCASSGYIFGRYAMGWYRQAPGKERELVAAISSTGDSTYYADSVKGRITISRDNAKNTVYLQMNSLKPEDTAVYYCNAVVPRYSYGRYYYWGQCTQVTVSS | high polyreactivity |
| QVQLVESGGGLVQAGGSLRLSCASSGYIFRSYAMGWYRQAPGKERELVATISWIGGGTSYADSVKGRFTISRDNAKNTVYLQMNSLKPEDTAVYYCAAGPWAYGRRHAYYSRSFDYWGQGTQVTVSS | high polyreactivity |
| QVQLVESGGGLVQAGGSLRLSCASSGYTFDYYTMGWYRQAPGKERELVARITASGGSTYYADSVKGRFTISRDNAKNTVYLQMNSLKPEDTSVYYCAKAWYRYSRFDYWGQGTQVTVSS | high polyreactivity |
| QVQLVESGGGLVQAGGSLRLSCASSGYTLRPNGKGWYRQAPGKERELVAAISSGGSTYYADSVKGRFTISRDNAKNTVYLQMNSLKPEDTAVYYCAAEYWYDYWGQGTQVTVSS | low polyreactivity |
| QVQLVESGGGLVQAGGSLRLSCASSVIILVQYVMGWYIQAPGKERELVASISRTGGSTNYADSVKGRFTISRDNAKNTVYLQMNSLKPEDTAVYYCSAKKRKIAGVGGDYWGQGTQVTVSS | high polyreactivity |
| QVQLVESGGGLVQAGGSLRLSCASSVRIFGSNVMGWYRQAPGKERELVASISSGGNTYYADSVKGRFTISRDNAKNTVYLQMNSLKPEDTAVYYCAARRGSAGQWYDYWGQGTQVTVSS | high polyreactivity |
| QVQLVESGGGLVQAGGSLRLSCASSVYIFVSNTKGWYRPAPGKERELVAAISWSGGSTNYADSVKGRFTISRDKAKNTVYLLMNSLKPEDTAVYYCNADDASHYYFRDDYWGQGTQVTVSS | low polyreactivity |
| QVQLVESGGGLVQAGGSLRLSCASYGRTFYDYAMGWYRPAPGKERELVAGIRWSGGSTYYADSVKGRFTISRDNAKNTVYLQLNRLKPEDTAVYYCAADWFAGVAADVEYDYWGQGTQVTVSS | low polyreactivity |
| QVQLVESGGGLVQAGGSLRLSCATGSIFGYNAMGWYRQAPGKERELVAAITSGGSTYYADSVKGRFTISRDNAKNTVYLQMNSLKPEDTAVYYCNRDDYNTAYRDASGYWGQGTQVTVSS | low polyreactivity |
| QVQLVESGGGLVQAGGSLRLSCATSGFTFVYNAMGWYRQAPGKESELVAAINWSGGRTYYADSVKGRFTISRDNAKNTVYLQMNSLKPEDTAVYYCAAGYSPYKGSAGYYWGQGTQVTVSS | low polyreactivity |
| QVQLVESGGGLVQAGGSLRLSCATSGSTFNDYDMGWYRQAPGKERELVAAISSSVSTYYADSVKGRFTISRDNAKNTVYLQMNSLKQEDTAVYYCAADYTGVCRYDYWGQGTLVTVSS | low polyreactivity |
| QVQLVESGGGLVQAGGSLRLSCATSRSTFVLYAMGWYRQAPGKERELDAAISGGATTTYADSVKGRFTISRDNAKNTVYLQMNSLKPEVTAVYYCAADFSTYVVSGAALDYWGQGTQVTLSS | low polyreactivity |
| QVQLVESGGGLVQAGGSLRLSCDASGAIFFSYAMRSYREAPGKERELVATITAGGGSTNYADSVKGRFTISRDNAKNTVYLQMNSLKAEDTAVYYSAAKRLSWHRYGYWGQGSQVTVSS | low polyreactivity |
| QVQLVESGGGLVQAGGSLRLSCDASGFIFDEYAMGWYRPAPGEERELVAAINWRGGSTYYADSVKGRFTISRDNAKNTVYLQMNSLKPEDTAVYYCAARNVYVWYDYWGQGTQVTVSS | low polyreactivity |
| QVQLVESGGGLVQAGGSLRLSCDASGFIFGRNAMGWYRQAPGKERELVAGISSSGFRTFYADSVKGRFTISRDNAKNTDYLQMNSLKQEDTAVYYCAAEIRYYKYGSYYYWGKGTQVTVSS | high polyreactivity |
| QVQLVESGGGLVQAGGSLRLSCDASGFIFNAYAMGWYRQAPGKERELVAAISTRGSNTYYADSVKGRFTISRDNAKNTVYLQMNSLKPDDTAVYYCAARGYVTFSKSNYWGQGTQVTVSS | high polyreactivity |
